Earlier results, collected in PMC12362618, “Development of the First Small-Molecule Inhibitor Targeting Oncostatin M for Treatment of Breast Cancer” (Journal of Medicinal Chemistry, 2025).

Biological target: gp130 (Homo sapiens) (UniProt P40189)
Sequence (P40189 23-619): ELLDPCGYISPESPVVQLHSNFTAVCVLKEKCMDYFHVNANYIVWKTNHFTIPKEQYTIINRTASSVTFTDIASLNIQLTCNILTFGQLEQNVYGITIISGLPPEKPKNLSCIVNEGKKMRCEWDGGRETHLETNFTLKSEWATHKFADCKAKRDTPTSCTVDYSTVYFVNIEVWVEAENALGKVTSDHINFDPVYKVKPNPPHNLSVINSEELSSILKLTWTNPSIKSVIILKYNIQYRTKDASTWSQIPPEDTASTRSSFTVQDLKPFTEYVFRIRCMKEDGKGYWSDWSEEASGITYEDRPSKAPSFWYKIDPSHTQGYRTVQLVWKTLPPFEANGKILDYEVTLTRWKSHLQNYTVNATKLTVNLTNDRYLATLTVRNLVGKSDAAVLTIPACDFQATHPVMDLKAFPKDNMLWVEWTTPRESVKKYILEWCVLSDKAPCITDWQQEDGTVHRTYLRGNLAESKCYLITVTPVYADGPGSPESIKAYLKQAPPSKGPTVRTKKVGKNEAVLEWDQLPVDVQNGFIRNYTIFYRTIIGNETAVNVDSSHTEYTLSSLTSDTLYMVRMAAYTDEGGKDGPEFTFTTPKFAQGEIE

Chain of OSM (P13725 26-221): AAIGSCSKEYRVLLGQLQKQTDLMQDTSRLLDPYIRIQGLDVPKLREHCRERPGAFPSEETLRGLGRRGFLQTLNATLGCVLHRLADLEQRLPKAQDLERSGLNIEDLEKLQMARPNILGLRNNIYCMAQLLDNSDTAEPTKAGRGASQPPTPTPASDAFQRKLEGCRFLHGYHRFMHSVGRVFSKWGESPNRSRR

- Kd: 22.7 nM
Substance: OSM (from UniProt P13725)
